Assay results from publication PMC4872093, “Structural insights into DNA sequence recognition by Type ISP restriction-modification enzymes”.

T1: LlaGIΔN (UniProt Q93R01 1-1+166-1570, internal_change)
T1 sequence: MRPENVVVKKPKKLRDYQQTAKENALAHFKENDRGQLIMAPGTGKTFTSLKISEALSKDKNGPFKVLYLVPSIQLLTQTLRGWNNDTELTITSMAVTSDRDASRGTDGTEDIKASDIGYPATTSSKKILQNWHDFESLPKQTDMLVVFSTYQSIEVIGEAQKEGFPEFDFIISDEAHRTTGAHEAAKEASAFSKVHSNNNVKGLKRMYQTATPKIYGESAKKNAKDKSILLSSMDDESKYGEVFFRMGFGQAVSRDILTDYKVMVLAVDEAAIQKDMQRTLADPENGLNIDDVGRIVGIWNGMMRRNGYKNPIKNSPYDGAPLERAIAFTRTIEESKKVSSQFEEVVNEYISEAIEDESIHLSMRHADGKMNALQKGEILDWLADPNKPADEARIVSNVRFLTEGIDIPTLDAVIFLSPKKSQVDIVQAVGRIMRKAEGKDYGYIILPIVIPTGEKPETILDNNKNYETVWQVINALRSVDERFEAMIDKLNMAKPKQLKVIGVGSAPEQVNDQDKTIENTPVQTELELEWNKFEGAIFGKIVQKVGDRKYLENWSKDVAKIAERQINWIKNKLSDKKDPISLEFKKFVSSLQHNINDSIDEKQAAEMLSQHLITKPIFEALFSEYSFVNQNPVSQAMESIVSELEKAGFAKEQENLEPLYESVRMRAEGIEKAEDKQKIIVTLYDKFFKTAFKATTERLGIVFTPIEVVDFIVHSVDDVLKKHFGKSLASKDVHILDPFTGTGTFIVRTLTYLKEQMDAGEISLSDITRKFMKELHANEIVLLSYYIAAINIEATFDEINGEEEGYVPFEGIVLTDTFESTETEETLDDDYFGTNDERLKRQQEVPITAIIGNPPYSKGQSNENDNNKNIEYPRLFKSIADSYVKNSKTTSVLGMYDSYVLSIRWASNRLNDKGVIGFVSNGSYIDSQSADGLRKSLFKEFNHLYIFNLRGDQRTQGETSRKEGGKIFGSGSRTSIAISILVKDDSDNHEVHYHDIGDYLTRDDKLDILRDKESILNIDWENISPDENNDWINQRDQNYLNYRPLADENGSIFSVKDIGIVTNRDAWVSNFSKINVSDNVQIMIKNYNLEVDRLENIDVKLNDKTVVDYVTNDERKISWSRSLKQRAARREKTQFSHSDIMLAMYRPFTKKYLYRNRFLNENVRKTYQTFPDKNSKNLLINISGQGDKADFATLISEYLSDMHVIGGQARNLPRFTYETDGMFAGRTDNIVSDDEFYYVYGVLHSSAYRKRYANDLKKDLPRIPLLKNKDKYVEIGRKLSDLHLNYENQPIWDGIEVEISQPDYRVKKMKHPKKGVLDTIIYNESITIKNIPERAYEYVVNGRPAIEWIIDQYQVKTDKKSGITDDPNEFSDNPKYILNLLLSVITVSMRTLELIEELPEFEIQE

B1: LlaGI co-crystal duplex (28 bp) (dsDNA)
DNA 1: GCTCTAGCTAATAGACTGGATGGAGGTG
DNA 2: CACCTCCATCCAGTCTATTAGCTAGAGC
B2: LlaGIΔN co-crystal duplex (22 bp) (dsDNA)
DNA 1: TTAGCTAATAGACTGGATGGAGG
DNA 2: TCCTCCATCCAGTCTATTAGCTA

Experiments:
[1] = target: LlaGI full-length (crystal) (UniProt Q93R01 1-1570, D78A); experiment: X-ray crystallography, 7.4 A; EMSA: 50 mM Tris-HCl pH 7.4, 100 mM NaCl, 10 mM MgCl2, 0.01 mg/ml BSA, 1 mM DTT, 10% glycerol, 4 C. Crystals at 291 K: LlaGIΔN 100 mM Tris-HCl pH 7.4, 20% PEG 20000, 4% PEG 550 MME, 150-250 mM Na acetate; LlaGI 100 mM MES pH 5.6, 300 mM KCl, 6.5% PEG 20000; conditions: protein: recombinant; blunt
LlaGIΔN = target: T1, LlaGIΔN; experiment: X-ray crystallography, 2.84 A; no AdoMet; target adenine flipped; EMSA: 50 mM Tris-HCl pH 7.4, 100 mM NaCl, 10 mM MgCl2, 0.01 mg/ml BSA, 1 mM DTT, 10% glycerol, 4 C. Crystals at 291 K: LlaGIΔN 100 mM Tris-HCl pH 7.4, 20% PEG 20000, 4% PEG 550 MME, 150-250 mM Na acetate; LlaGI 100 mM MES pH 5.6, 300 mM KCl, 6.5% PEG 20000; conditions: protein: recombinant; 5' overhang 1 nt (T) on both strands, 22 bp paired

Binder | binding result [1] | binding result (LlaGIΔN)
B1 | binds | 
B2 |  | binds
